The source of these data is patent publication US20140220040A1 (ARCA BIOPHARMA, published 2014).

As a reminder, the Kd is a measure of binding affinity in units of concentration. The term koff denotes the first-order rate constant of dissociation. What is called kon is the second-order rate constant of association.

The chains are these.
T1: Human LRP6-Fc (R&D Systems), recombinant human LRP6 containing the complete extracellular domain (human, UniProt O75581 20-1370)
T1 construct: Bought protein; also called hLRP6; Fc-antigen; not shown: Fc part of the bought fusion protein
T1 sequence: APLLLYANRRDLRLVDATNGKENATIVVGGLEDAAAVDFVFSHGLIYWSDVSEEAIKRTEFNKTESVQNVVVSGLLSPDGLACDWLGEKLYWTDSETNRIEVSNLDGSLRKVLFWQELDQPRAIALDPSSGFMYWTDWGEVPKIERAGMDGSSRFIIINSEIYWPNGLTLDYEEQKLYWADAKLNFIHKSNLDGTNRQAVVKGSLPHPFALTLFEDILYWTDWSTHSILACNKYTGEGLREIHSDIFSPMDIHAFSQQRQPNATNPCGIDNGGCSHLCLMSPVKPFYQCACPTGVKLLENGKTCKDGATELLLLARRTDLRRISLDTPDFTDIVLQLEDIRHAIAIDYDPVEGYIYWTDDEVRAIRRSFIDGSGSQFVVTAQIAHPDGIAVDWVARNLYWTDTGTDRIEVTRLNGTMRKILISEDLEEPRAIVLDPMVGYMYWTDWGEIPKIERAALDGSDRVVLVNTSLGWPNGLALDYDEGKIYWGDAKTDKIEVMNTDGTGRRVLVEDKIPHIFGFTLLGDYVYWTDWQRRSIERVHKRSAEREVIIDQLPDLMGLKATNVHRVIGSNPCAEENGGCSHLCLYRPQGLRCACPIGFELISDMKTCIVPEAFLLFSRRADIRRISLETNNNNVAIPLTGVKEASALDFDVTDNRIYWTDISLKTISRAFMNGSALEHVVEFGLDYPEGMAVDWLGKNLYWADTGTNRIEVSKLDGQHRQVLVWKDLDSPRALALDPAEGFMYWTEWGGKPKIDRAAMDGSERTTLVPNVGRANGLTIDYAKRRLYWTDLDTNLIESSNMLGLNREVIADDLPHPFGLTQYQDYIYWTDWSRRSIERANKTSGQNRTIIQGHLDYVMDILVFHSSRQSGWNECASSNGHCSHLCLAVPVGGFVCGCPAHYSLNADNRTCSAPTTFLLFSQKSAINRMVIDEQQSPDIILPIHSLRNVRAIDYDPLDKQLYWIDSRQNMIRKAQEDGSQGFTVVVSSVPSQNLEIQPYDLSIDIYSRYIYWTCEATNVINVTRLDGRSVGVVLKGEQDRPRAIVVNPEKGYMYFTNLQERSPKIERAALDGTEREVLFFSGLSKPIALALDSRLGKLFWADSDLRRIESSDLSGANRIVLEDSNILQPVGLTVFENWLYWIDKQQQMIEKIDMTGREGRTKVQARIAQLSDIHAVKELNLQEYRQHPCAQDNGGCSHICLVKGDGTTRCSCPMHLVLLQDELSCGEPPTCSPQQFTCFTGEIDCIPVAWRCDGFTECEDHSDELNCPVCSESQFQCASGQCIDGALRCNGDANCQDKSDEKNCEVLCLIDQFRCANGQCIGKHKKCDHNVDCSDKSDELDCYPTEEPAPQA

B1: anti-LRP6 monoclonal antibody 77.2 (antibody, V domains shown)
VH: QVQLQQSGAELAKPGASVKMSCKASGYTFTSYWMHWVKQRPGQGLEWIGYINPSTGYTEYNQNFRDKATLTADKSSSTANMQLSSLTSEDSAVYYCARTAQYYGSPRGYYAMDSWGQGTSVTVSS
VL: DIVMTQAAFSNPVTLGTSASISCRSSKSLLHSNGITYLCWFLQKPGQSPQLLIYLMSNLASGVPDRFSSSGSGTDFTLRISRVEAEDVGVYFCAQNLDLPWTFGGGTKLEI
notes: Murine hybridoma mAb, protein G purified; also called mAb 77.2; VH1/VL1
B2: anti-LRP6 monoclonal antibody 1281.1 (antibody, V domains shown)
VH: B1 VH with M20I, S54N, T58S, N63K, D73N, E89D
VL: B1 VL with L55Q
notes: Murine hybridoma mAb, protein G purified; also called VH19/VL19
B3: anti-LRP6 monoclonal antibody 413.1 (antibody, V domains shown)
VH: EIQLQQSGPELVKPGASVKVSCKASGYAFTSYNMYWVKQSHGKGLEWIGYIDPYNGGTDSNQNFKGKATLTVDKSSSTAFMHLNSLTSEDSAVYYCARGGMGLRRDHFDYWGQGTSLTVSS
VL: QIVLTQSPAIMSASPGEKVTISCSANSSVRYMFWYQQKPGSFPKPWTYRTSNLASGVPARFSGSGSGTSYSLTISSMEAEDVATYYCQQYHSYPWTFGGGTKLEI
notes: Murine hybridoma mAb, protein G purified; also called VH5/VL5
B4: anti-LRP6 monoclonal antibody 620.1 (antibody, V domains shown)
VH: B3 VH with G44S, D59N, S60Y, N63K, F80Y, H107Y, Y110F, S116T
VL: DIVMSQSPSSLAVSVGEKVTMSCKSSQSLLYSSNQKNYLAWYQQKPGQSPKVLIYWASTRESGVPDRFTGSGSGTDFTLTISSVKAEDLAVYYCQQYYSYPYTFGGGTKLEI
notes: Murine hybridoma mAb, protein G purified; also called VH10/VL10
B5: anti-LRP6 monoclonal antibody 856.6 (antibody, V domains shown)
VH: QVQLQQSGPELVKPGASVRISCKASGYTFTTYYIHWLKQRPGQGLEWIGWIFPGNVNTKYNAKFKGKATLTADKSSSTAYMQLSSLTSEDSAVYFCAREGLQYYFDYWGQGTTLTVSS
VL: B3 VL with Y31F, F42S, W46L, T47I, V82A
notes: Murine hybridoma mAb, protein G purified; also called VH11/VL11
B6: anti-LRP6 monoclonal antibody 421.1 (antibody, V domains shown)
VH: B5 VH with G100E, T112S
VL: B3 VL with Y31F, F42S, W46L, T47I, S64C, V82A
notes: Murine hybridoma mAb, protein G purified; also called VH6/VL6
B7: anti-LRP6 monoclonal antibody 537.2 (antibody, V domains shown)
VH: DVQLQESGPGLVKPSQSLSLTCSVTGYSITSGYYWNWIRQFPGDKLEWMGHINYDGRDNYNPSLKNRISITRDTSKNQFFLKLNSVTTEDTATYYCAREFGNFPYYFDYWGQGTTLTVSS
VL: B3 VL with N26Y, Y31F, F42S, W46L, T47I, P58S, V82A
notes: Murine hybridoma mAb, protein G purified; also called VH8/VL8
B8: anti-LRP6 monoclonal antibody 1253.12 (antibody, V domains shown)
VH: B5 VH with K13M, T31N, I34L, L37V, F52Y, A62E, T69S, G109A
VL: B3 VL with T47I
notes: Murine hybridoma mAb, protein G purified; also called VH18/VL18
B9: anti-LRP6 monoclonal antibody 1293.11 (antibody, V domains shown)
VH: B5 VH with G100E, T112S, T113A
VL: B3 VL with Y31F, F42S, W46L, T47I, V82A
notes: Murine hybridoma mAb, protein G purified; also called VH20/VL20
B10: anti-LRP6 monoclonal antibody 931.1 (antibody, V domains shown)
VH: DVNLVESGGGLVKLGGSLKLSCAASGFTFSSFYMSWVRQTPEKRLDLVATINTNGGSTYYSDTVKGRFTISRDNAKNTLYLQMNSLKSEDTALFYCVRQPYYGGTMDYWGQGTSVTVSS
VL: DIVLTQSPATLSVTPGDRVSLSCRASQSINNNLHWYQQKSHESPRLLIKYASQSISGIPSRFSGSGSGTDFTLSINSVETEDFGMYFCQQTNNWPLTFGAGTKLEL
notes: Murine hybridoma mAb, protein G purified; also called VH13/VL13
B11: anti-LRP6 monoclonal antibody 1213.2 (antibody, V domains shown)
VH: B10 VH
VL: B10 VL
notes: Murine hybridoma mAb, protein G purified; also called VH17/VL17
B12: anti-LRP6 monoclonal antibody 1115.3 (antibody, V domains shown)
VH: DVKLVESGGGLVKLGGSLRLSCAASGFSFSTSYMSWVRQTPEKRLELVAAINLNGGSTYYSDTVKGRFTISRDNAKNTLYLQMSSLKSEDTAFYYCASELAGYGTPFAYWGQGTLVTVSA
VL: B10 VL with R18S, R24K, N30S, A51T, S74T, S77N, T91S, N93S, L106V
notes: Murine hybridoma mAb, protein G purified; also called VH16/VL16
B13: anti-LRP6 monoclonal antibody 240.8 (antibody, V domains shown)
VH: B12 VH with R19K, S28T, T31S, S32Y, L53S, S61A, V64M, S84I, Q112H
VL: B10 VL with S7F, R18S, N30S, N31S, K39T, S65T, T91S, N93T
notes: Murine hybridoma mAb, protein G purified; also called VH4/VL4
B14: anti-LRP6 monoclonal antibody 213.7 (antibody, V domains shown)
VH: DVKLVESGGGLVKVGGSLKLSCAASGFTFSSYYMSWVRQTPEKRLELVAVINTNGGSTYYSDTVKGRFTISRDNAKNTLYLQMSSLKSEDTALYYCSRQPYYGNPFDYWGQGTTLTVSS
VL: B10 VL with R18S, N30S, A51V, T91S
notes: Murine hybridoma mAb, protein G purified; also called VH3/VL3
B15: anti-LRP6 monoclonal antibody 498.3 (antibody, V domains shown)
VH: DVKLVESGGGLVRLGGSLKLSCAASGFTFSTYYMSWVRQTPEKRLELVATINTNGGSTYYPDTLKGRFTISRDNAKNTLYLQMSSLRSEDTALYYCARQRNYGVAVDSWGQGTSVTVSS
VL: B10 VL with R18S, N30S, L106R
notes: Murine hybridoma mAb, protein G purified; also called VH7/VL7
B16: anti-LRP6 monoclonal antibody 923.3 (antibody, V domains shown)
VH: B12 VH with L14V, R19K, S28T, T31S, S32Y, L53I, S61P
VL: B10 VL with R18S, N30S, T91S
notes: Murine hybridoma mAb, protein G purified; also called VH12/VL12
B17: anti-LRP6 monoclonal antibody 606.4 (antibody, V domains shown)
VH: B14 VH with T53S, D62E
VL: B10 VL with R18S, N30S, A51V, T91S
notes: Murine hybridoma mAb, protein G purified; also called VH9/VL9

Where a chain is given by its changes, count along the chain named.

This assay addresses T1, Human LRP6-Fc (R&D Systems), …. The assay is described as follows: SPR (BIAcore), mAb captured on anti-mouse chip, Fc-antigen injected, 1:1 model. The method, then:
Kinetic rate constants (kₐ and kd) were determined using surface plasmon resonance, and affinities (KD) were then calculated from the rate constants (kd/kₐ). Surface plasmon resonance was carried out on a BIAcore system (Biacore International AB, Uppsala, Sweden). Each murine anti-LRP6 mAb sample was diluted 100 fold and captured onto an anti-mouse sensor chip surface. The running buffer contained 10 mM HEPES, 150 mM NaCl, 0.005% Tween-20 and 0.1 mg/ml BSA. Following the capturing step, the Fc-antigen was injected at 45 nM as the highest concentration in a 3-fold dilution series. The association and dissociation phases were monitored for 8 and 60 minutes, respectively. The antigen response data were fit into a 1:1 interaction model.
(In general: In SPR one partner is held on a chip, and binding of the other changes the refractive index at the surface.)
Turning to B1, the Kd is 0.55 nM, the koff stood at 3.5e-05 s⁻¹ and the kon worked out at 63200 M⁻¹ s⁻¹.
Consider B2, for which the Kd was determined as 1.83 nM, the koff came to 8.3e-05 s⁻¹ and the kon is 45500 M⁻¹ s⁻¹.
On to B3, for which the Kd turned out to be 18 nM, the koff is 8.47e-05 s⁻¹ and the kon is 4700 M⁻¹ s⁻¹.
On to B4, for which the Kd amounted to 1.73 nM, the koff worked out at 7.7e-05 s⁻¹ and the kon was found to be 44600 M⁻¹ s⁻¹.
Regarding B5, the Kd amounted to 0.95 nM, the koff stood at 4.5e-05 s⁻¹ and the kon is 47400 M⁻¹ s⁻¹.
Regarding B6, the Kd was 3.2 nM, the koff was 0.000114 s⁻¹ and the kon worked out at 35400 M⁻¹ s⁻¹.
Take B7: the Kd was 0.9 nM, the koff is 3.15e-05 s⁻¹ and the kon is 35200 M⁻¹ s⁻¹.
With B8, the Kd came to 2.15 nM, the koff stood at 7.3e-05 s⁻¹ and the kon came to 34000 M⁻¹ s⁻¹.
As for B9, the Kd turned out to be 57 nM, the koff came out at 0.000124 s⁻¹ and the kon was found to be 2200 M⁻¹ s⁻¹.
With B10, the Kd was determined as 1.12 nM, the koff is 6.3e-05 s⁻¹ and the on-rate (kon) is 56300 M⁻¹ s⁻¹.
As for B11, the Kd turned out to be 1.07 nM, the koff is 6.3e-05 s⁻¹ and the kon worked out at 58800 M⁻¹ s⁻¹.
Turning to B12, the Kd is 1.45 nM, the koff stood at 5.34e-05 s⁻¹ and the kon was 36800 M⁻¹ s⁻¹.
Take B13: the Kd stood at 6.55 nM, the dissociation rate constant (koff) is 4e-05 s⁻¹ and the kon was 6110 M⁻¹ s⁻¹.
Take B14: the Kd is 1.72 nM, the koff was found to be 9.6e-05 s⁻¹ and the kon worked out at 55600 M⁻¹ s⁻¹.
With B15, the Kd stood at 0.98 nM, the koff turned out to be 5e-05 s⁻¹ and the kon was 50500 M⁻¹ s⁻¹.
For B16 the same measures were 2.33 nM, 7.4e-05 s⁻¹ and 31600 M⁻¹ s⁻¹.
For B17, the dissociation constant (Kd) worked out at 1.08 nM, the koff was found to be 5.7e-05 s⁻¹ and the kon amounted to 53200 M⁻¹ s⁻¹.
